The results in this text go back to paper PMC5303273, “Rab1 interacts with GOLPH3 and controls Golgi structure and contractile ring constriction during cytokinesis in Drosophila melanogaster” (Open Biology, 2017).

For this experiment, the target named is T1, 6XHis-GOLPH3 (Drosophila melanogaster, UniProt Q9VQ93 1-294).
T1 construct: Drosophila GOLPH3 made with the pET Directional TOPO Expression kit; also called 6XHis-tagged GOLPH3; recombinant GOLPH3; source: recombinant (pET Directional TOPO Expression kit), purified (cOmplete His-Tag Purification Resin)
The experiment can be described thus: pull-down; GST-Rab protein on glutathione beads loaded with GMP-PNP (GTP), incubated with recombinant 6XHis-GOLPH3 for 5 h at 4°C; blot with anti-6XHis. As to conditions: both partners purified.

T1 sequence (Q9VQ93 whole entry): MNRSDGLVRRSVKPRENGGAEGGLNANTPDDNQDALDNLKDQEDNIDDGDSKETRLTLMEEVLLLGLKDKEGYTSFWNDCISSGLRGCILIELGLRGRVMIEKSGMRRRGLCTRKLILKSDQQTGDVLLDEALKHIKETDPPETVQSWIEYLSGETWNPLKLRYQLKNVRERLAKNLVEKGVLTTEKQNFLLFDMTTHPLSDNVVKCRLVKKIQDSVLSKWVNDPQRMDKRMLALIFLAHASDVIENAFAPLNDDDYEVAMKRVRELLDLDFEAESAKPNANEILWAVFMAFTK

B1: GST-Rab1 (natural protein)
chain: not shown
notes: full-length cDNA of Drosophila Rab1 cloned into pGEX-6p-2; In the direct pull-down the protein on the beads was loaded with GDP-beta-S or GMP-PNP; also called GST-full-length Drosophila Rab1; source: BL21-CodonPlus (DE3), purified (Glutathione-Sepharose 4B beads)
For B1, the binding result was “binds”.
